Kd and EC50 data for four molecules are collected here from patent publication US20250101126A1.

Positions count from the first letter of the chain named.

Sequences and labels used below:
B1: 2D5-HV1-69-C/KV2B (antibody, V domains shown)
VH: QVQLVQSGAEVKKPGSSVKVSCKASGYTFSDHAIHWVRQAPGQGLEWLGYISPGNADINYAQKFQGRVTITADKSTSTAYMELSSLRSEDTAVYYCKRSMANSFDYWGQGTLVTVSS
VL: DIVMTQTPLSLPVTPGEPASISCRSSQSVLYSSDEKTYLAWYLQKPGQSPQLLIYWASTRESGVPDRFSGSGSGTDFTLKISRVEAEDVGVYYCHQYLSSYTFGQGTKLEIK
B2: 2D5-HV1-3B/KV2B (antibody, V domains shown)
VH: B1 VH with S16A, S30T, G44R, A56D, N59Q, A61S, Q65K, T76A
VL: B1 VL
B3: 2D5-HV1-69-B/KV2B (antibody, V domains shown)
VH: B1 VH with S30T, A56D, N59Q, A61N, Q65K
VL: B1 VL
B4: 2D5-HV1-69-A/KV2A (antibody, V domains shown)
VH: B1 VH with S30T, A56D, N59Q, A61N, Q62A, Q65K, V68A, I70L, Y95F
VL: B1 VL with M4L, R24K, E35Q, T37N

The target of one assay is MUC4-Tn glycopeptide … (SEQ ID NO:154) with O-linked GalNAc on the serine and threonine at positions 12 and 13. Nature of the assay: BLI (Octet), MUC4 glycopeptide on biosensor.
Sequence of MUC4-Tn glycopeptide … (SEQ ID NO:154) with O-linked GalNAc on the serine and threonine at positions 12 and 13 (peptide, as listed by the source): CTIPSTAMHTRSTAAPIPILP
B1 came in with an equilibrium dissociation constant (Kd) of 5.3 nM.

B2 came in with a Kd of 7.7 nM.

Molecule B3 showed a Kd of 3.3 nM.

Turning to B4, the Kd came to 4.1 nM.

For a further assay, the target named is Tn-glycosylated MUC4 on cells (MUC4-Tn; COSMC-KO cells, cancer tissue) (UniProt Q99102). Nature of the assay: flow cytometry on T3M4 COSMC-KO (T3M4-M) cells.
With B1, the EC50 was 0.0194 µg/mL.

The molecule B2 returned an EC50 of 0.0163 µg/mL.

As for B3, the 50% effective concentration (EC50) stood at 0.0248 µg/mL.

B4 registered an EC50 of 0.0179 µg/mL.
